We go through 16 sequences from the nanobody polyreactivity screen of Harvey et al. (2022).

A short description of this data set: yeast display, Sf9 membrane polyspecificity reagent, FACS + sequencing; frameworks hold sequencing errors. Summed up:
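Polyreactivity labels are assigned by the sorting gate from which each nanobody was recovered. The gates were low and high (top ~1%), set on anti-HA fluorescence for expression and streptavidin fluorescence for reagent binding. Before sorting, galactose-induced (36–48 hours) yeast display cells were stained for 1 hour at 4 °C with 10% biotinylated, detergent-solubilized Sf9 membrane reagent.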
“QVQLVESGGGLVQAGGSLRLSCAASGSTFQANDMGWYRQAPGKERELVAAISTGGSSTYYADSVKGRFTISRDNAKNTVYLQMNCLKPEDTAVYYCAVDGLGGREGYWGQGTQVTVSS”: the “polyreactivity (PSR sort gate)” value is recorded as “high polyreactivity”.

For the sequence “QVQLVESGGGLVHAGGSLRLSCAASGFIFARYAMGWYRQAPGKERELVAAINLSGGSTYYADSVKGRFTISRDNAKNTVYLQMNSLKPEDTAVYYCAATDPPYDAFEAKIDYQDFDYWGQGTQVTVSS”, the “polyreactivity (PSR sort gate)” value is “low polyreactivity”. Then “QVQLVESGGGLVQAGGSLRLSCAASGSTFYWYAMGWYRQAPGKERELVASISWSGGRTYYADSVKGRFTISRDTAKNTVYLQMNSLKPEDTAVYYCAARRKGRYYYWGQGTQVTVSS”, with “high polyreactivity”. Consider “QVQLVESGGGLVQAGGSLRLSCAASGFIFGDYAMGWYRQAPGKERELVAAINYSGGSTYYADSVKGRFTISRDNAKNTGYLQMNSLKPEDTAVYYCAALIYGLVGWGQGTQVTVSS”, for which the “polyreactivity (PSR sort gate)” value is “low polyreactivity”. Then “QDQLVESGGRLVQAVGSLRLTCAASGRIFRGNGLGWYRQAPGKARELVASISSGGRTNYADSVKGRFTISRDNAKNTVYLQMNSLKPEDTAVYYCSATKSPSLYRWLYDYWGQGTQVTVSS”, with “high polyreactivity”. With “QVQLVESGGGLVQAGGSLRLSCAASGNTFYINAMGWYRQAPGKERELVAAINYSGDSTYADSVKGRFTITRDNAKNTFYLQMNSLKPEDTAVYYCAADTGWYDDWTHDYWGHGTQVTVSS” the entry was “low polyreactivity”; with “QVQLVESCGGLVQAGGSLRLSCDASVSIFYRNAMGWYRQAPGKERELVAAIRSGGSTNYADSVKGRFTISRDNAKNTVYLQMNSLKPEDTAVYYCAAGYFWRQYKMGYWGQGTQVTVSS”, “high polyreactivity”. With “QVHLVESGGGLVQAGGSLRLSCAASGFTFRVYAMGWYRPAPGKERELVAAITKRGGSTYYADSVKGRFTISRDNAKNTVYLQMNSLKPEDTAGYYCATENTPHYASHGYWGQGTQVTVSS” the entry was “high polyreactivity”; with “QVQLVESGGGLVQAGGSLRLSCAATGSIFNKYAMGWYRQAPGTEREFVAAITQGGGRTYYADSVKGRFTISRDNAKNTVYLQMNSLKPEDTAVYYCAKPAYHSPDYDYWGQGTQVTVSS”, “high polyreactivity”; with “QVQLVESGGGLVQAGGSLRLSCAASGRIFVKNAMGWYRQAPGKERELVAGISRGGSTYYADSVKGRFTISRDNAKNTVYLQMYSLKPEDTAVYYCATRNYGRGQFDYWGQGSQVTVSS”, “high polyreactivity”. Regarding “QVQLVESGGGLVQAGGSLRLSCAASGSIFYTNAMGWYRQAHGKERELVAAIRTGGSTNYADSVKGRFTISRDNAKNTDYLQMNSLTPDDTAVYYCNADVYIRDLFYPYIYTYDYWGQGTQVTVSS”, the “polyreactivity (PSR sort gate)” value is on record as “low polyreactivity”. Regarding “LVQLVESGGGLVQAGGSLRLSCAASGFIFFGEYVMGWYRQAPGKEREFVAAITDSDGSTYYADSVKGSFTISRDNGKNTVYLQMISLKPEDTAVYYCAAERVYSDMDYWGQGTQVTVSS”, the “polyreactivity (PSR sort gate)” value is reported as “low polyreactivity”. With “QVQLVESGGGLVQAGGSLRLSCAASGSISVANAMGWYRQAPGKERELVAAITDSGDDTYYADSVKGRFTISRDTAKNTVYLQMNSLKPEDTAVYYCAVEAWSVPPYDYWGQGTQVTVSS” the entry was “low polyreactivity”; with “QVQLVESGGGLVQAGGSLRLSFAASGSILYIYAMGWYRQAPGKERELVASISRSGGRTYDADSVNGRFTISRDNAKNTVYLQMNSLKPEDTAVYYCDAVTGGGSKMDYWGQGTQVTVSS”, “high polyreactivity”; with “QVQLVESGGGLFHAGGSLRLSCAASGRTFGIYAMGGSRQAPGKERELVAAITWSGDSTYYADSVKGRFTISRDNAKNTVYLQMNRLKPEDTAVYYCAADYVGVTSVRYDYWGQGTQVTVSS”, “low polyreactivity”. In the case of “QVQLVESGGGLVQAGGSLRLSCAASGSIFEGYVMGWYRQAPGKERELVATISFSGGSTYYADSVKGRFTISRDNAKNTVYLQMNSLKPEDTAVYYCATSRYFNTGRGYWGQGTQVTVSS”, the “polyreactivity (PSR sort gate)” value is recorded as “low polyreactivity”.
